Test results taken from patent US20040157214A1.

Target: bovine thyroglobulin (bovine) (UniProt P01267)
Experiment: phage ELISA, 200 ug/ml thyroglobulin

bovine thyroglobulin (bovine), sequence (P01267 20-2769 limits assumed): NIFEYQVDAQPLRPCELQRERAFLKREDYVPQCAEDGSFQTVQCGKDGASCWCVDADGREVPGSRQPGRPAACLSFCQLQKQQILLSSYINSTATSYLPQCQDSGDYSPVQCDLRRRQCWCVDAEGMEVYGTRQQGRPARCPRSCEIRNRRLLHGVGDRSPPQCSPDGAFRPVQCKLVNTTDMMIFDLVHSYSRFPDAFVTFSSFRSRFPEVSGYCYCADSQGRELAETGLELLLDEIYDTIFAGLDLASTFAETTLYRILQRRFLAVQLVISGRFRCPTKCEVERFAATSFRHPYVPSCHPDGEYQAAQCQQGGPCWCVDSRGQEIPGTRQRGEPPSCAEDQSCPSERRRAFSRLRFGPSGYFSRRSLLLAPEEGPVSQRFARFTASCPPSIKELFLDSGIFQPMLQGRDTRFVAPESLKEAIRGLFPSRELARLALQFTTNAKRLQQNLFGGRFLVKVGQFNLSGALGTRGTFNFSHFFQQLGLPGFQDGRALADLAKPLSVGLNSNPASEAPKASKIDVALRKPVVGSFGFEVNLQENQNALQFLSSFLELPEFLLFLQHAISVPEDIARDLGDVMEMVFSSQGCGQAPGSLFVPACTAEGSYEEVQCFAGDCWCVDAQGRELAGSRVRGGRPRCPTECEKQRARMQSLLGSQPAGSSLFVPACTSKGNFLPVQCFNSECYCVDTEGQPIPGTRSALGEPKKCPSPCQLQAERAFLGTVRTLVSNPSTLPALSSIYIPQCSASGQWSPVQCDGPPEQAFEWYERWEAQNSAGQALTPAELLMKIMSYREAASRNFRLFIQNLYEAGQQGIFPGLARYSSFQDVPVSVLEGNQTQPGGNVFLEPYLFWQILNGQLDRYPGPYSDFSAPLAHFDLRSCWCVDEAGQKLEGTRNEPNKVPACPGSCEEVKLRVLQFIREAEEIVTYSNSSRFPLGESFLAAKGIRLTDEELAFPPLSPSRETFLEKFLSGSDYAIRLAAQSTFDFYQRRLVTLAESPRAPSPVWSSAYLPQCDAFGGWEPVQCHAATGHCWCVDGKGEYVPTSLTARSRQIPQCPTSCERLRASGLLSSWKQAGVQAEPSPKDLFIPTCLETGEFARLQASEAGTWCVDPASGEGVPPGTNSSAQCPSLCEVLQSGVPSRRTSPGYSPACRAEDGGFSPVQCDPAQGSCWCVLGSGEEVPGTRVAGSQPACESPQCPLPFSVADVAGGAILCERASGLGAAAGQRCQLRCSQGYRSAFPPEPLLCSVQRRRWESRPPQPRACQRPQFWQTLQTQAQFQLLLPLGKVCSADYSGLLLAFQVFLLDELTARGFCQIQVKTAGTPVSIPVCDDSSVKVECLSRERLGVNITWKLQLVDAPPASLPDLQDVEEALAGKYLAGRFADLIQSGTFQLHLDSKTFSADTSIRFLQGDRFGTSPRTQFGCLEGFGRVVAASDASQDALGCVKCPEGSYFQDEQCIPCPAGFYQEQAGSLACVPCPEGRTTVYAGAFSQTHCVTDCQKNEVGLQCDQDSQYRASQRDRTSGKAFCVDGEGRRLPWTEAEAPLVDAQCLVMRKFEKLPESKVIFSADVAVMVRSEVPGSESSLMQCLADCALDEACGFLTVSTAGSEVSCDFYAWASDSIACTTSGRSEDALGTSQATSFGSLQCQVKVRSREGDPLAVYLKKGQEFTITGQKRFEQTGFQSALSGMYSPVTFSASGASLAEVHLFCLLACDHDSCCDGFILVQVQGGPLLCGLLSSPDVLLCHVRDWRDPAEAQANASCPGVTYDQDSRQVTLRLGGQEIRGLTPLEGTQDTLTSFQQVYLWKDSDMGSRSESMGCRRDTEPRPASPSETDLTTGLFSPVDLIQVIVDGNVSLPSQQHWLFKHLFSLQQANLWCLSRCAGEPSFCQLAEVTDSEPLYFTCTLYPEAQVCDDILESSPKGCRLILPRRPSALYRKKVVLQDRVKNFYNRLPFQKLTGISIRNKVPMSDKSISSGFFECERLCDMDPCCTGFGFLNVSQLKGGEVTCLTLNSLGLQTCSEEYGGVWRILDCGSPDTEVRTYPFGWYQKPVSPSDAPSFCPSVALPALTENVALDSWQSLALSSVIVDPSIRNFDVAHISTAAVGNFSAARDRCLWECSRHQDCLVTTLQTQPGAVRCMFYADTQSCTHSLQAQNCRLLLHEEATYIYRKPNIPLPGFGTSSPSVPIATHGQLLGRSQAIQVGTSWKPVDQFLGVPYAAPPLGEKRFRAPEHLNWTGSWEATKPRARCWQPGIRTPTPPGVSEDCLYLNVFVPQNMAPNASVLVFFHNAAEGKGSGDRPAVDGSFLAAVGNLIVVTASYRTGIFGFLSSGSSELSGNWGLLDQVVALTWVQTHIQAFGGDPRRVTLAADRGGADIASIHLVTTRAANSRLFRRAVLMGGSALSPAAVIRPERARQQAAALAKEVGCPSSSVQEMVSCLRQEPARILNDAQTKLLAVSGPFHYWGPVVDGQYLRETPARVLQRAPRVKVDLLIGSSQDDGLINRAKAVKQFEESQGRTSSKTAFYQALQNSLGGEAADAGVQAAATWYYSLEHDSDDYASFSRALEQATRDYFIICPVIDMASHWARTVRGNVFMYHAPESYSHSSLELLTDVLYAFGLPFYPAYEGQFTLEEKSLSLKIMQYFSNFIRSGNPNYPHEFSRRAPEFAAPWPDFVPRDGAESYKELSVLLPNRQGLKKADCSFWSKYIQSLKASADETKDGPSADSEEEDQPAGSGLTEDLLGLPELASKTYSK
pCAT-3 non-recombinant vector phagemid, sequence (P03661 19-424): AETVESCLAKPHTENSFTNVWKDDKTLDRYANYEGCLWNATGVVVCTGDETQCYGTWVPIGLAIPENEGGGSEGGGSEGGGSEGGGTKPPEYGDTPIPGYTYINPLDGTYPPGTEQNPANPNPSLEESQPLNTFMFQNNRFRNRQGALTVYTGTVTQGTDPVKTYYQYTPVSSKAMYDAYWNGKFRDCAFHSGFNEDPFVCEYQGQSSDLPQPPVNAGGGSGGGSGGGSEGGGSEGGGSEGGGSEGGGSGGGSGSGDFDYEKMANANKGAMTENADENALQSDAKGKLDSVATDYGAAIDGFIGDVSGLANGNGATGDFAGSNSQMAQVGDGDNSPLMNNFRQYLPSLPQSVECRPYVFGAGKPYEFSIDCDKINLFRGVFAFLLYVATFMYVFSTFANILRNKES

In the case of “pCAT-3 non-recombinant vector phagemid (from UniProt P03661 19-424)”, the ELISA O.D. is reported as 0.07 O.D.
